Reference: article PMC4718629, “Molecular Determinants of GS-9620-Dependent TLR7 Activation” (PLoS ONE, 2016)

Target: the molecule itself
Assay: SEC; purified recombinant full-length TLR7 run against calibration standards (670, 158, 44, 17 and 1.35 kDa); solubilized with Fos-Choline 14

B1: full-length recombinant human TLR7 (residues 27-1049) with N-terminal 6HIS tag (receptor, UniProt Q9NYK1 27-1049, looked up)
chain: ARWFPKTLPCDVTLDVPKNHVIVDCTDKHLTEIPGGIPTNTTNLTLTINHIPDISPASFHRLDHLVEIDFRCNCVPIPLGSKNNMCIKRLQIKPRSFSGLTYLKSLYLDGNQLLEIPQGLPPSLQLLSLEANNIFSIRKENLTELANIEILYLGQNCYYRNPCYVSYSIEKDAFLNLTKLKVLSLKDNNVTAVPTVLPSTLTELYLYNNMIAKIQEDDFNNLNQLQILDLSGNCPRCYNAPFPCAPCKNNSPLQIPVNAFDALTELKVLRLHSNSLQHVPPRWFKNINKLQELDLSQNFLAKEIGDAKFLHFLPSLIQLDLSFNFELQVYRASMNLSQAFSSLKSLKILRIRGYVFKELKSFNLSPLHNLQNLEVLDLGTNFIKIANLSMFKQFKRLKVIDLSVNKISPSGDSSEVGFCSNARTSVESYEPQVLEQLHYFRYDKYARSCRFKNKEASFMSVNESCYKYGQTLDLSKNSIFFVKSSDFQHLSFLKCLNLSGNLISQTLNGSEFQPLAELRYLDFSNNRLDLLHSTAFEELHKLEVLDISSNSHYFQSEGITHMLNFTKNLKVLQKLMMNDNDISSSTSRTMESESLRTLEFRGNHLDVLWREGDNRYLQLFKNLLKLEELDISKNSLSFLPSGVFDGMPPNLKNLSLAKNGLKSFSWKKLQCLKNLETLDLSHNQLTTVPERLSNCSRSLKNLILKNNQIRSLTKYFLQDAFQLRYLDLSSNKIQMIQKTSFPENVLNNLKMLLLHHNRFLCTCDAVWFVWWVNHTEVTIPYLATDVTCVGPGAHKGQSVISLDLYTCELDLTNLILFSLSISVSLFLMVMMTASHLYFWDVWYIYHFCKAKIKGYQRLISPDCCYDAFIVYDTKDPAVTEWVLAELVAKLEDPREKHFNLCLEERDWLPGQPVLENLSQSIQLSKKTVFVMTDKYAKTENFKIAFYLSHQRLMDEKVDVIILIFLEKPFQKSKFLQLRKRLCGSSVLEWPTNPQAHPYFWQCLKNALATDNHVAYSQVFKETV
notes: human Toll-like receptor 7 (TLR7), residues 27-1049; also called recTLR7; recombinant TLR7
With B1 the “stoichiometry N” value was 2.
